Test system: MS2 coat protein
Experiment: apparent KD of MS2 coat protein; designed switch direction (-1 OFF switch, 1 ON switch): -1; higher = weaker reporter binding
Procedure, shortened: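 Stalled E. coli RNA polymerase transcribed designed RNA switches on Illumina chips, which were then titrated with SNAP-549-labelled MS2 coat protein, doubling from 0.7 or 1.5 nM to 3 µM. Steps lasted from 0.8–1.5 h at the lowest concentration to 10–20 min at the highest. The apparent KD is each design's median over clusters of curve-fitted normalised fluorescence.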

[1] = Eterna round: R95, input ligand: microRNA oligo, concentration not stated
[2] = input ligand: microRNA oligo, concentration not stated
[3] = Eterna round: R95, input ligand: FMN 200 uM
[4] = Eterna round: R95, input ligand: none

CCUCAGUAAGGAUAUCAGCUUAUAAGGUUGGUAAUGAGAGCUGAGAAGGUACAUGAGGAUCACCCAUGUUAGUU [JL Zatite mod 6] (puzzle: Exclusion 4)
apparent KD of MS2 coat protein [1]: 26.7 nM

AGAGUGCUGCGAGGAUAUACAUGAGGAUCACCCAUGUAAUCGUCUGAGGCAAAGCCUCAGACGAAGUAGAAGGCGCAGUACUCA [Mat - Exclusion NG 2 - Mod of JL - D27] (Eterna round: R96, puzzle: Exclusion NG 2)
apparent KD of MS2 coat protein (input ligand: FMN 200 uM): 20 nM | apparent KD of MS2 coat protein [2]: 12.5 nM | apparent KD of MS2 coat protein (input ligand: none): 17.9 nM

AAUAACAAGCAGGUCCUAAACAUGAGGAUCACCCAUGUGCUCGUCUUGUAAAGUACUAUCACGAAAGUGAUAGUACA [Sensor 3, v1 - 60] (puzzle: Sensor v3, turn-off variant 1)
apparent KD of MS2 coat protein [3]: 26.8 nM | apparent KD of MS2 coat protein [1]: 297 nM | apparent KD of MS2 coat protein [4]: 28.3 nM

ACAUGAUGCUUAGGAUAUGUUCUUACGCCAUGAAUAGAAGGGAGCGGACAGAAGUGACCUGACAUGAGGAUCACCCAUGUCUAA [Isusus] (Eterna round: R96, puzzle: Exclusion NG 1)
apparent KD of MS2 coat protein (input ligand: FMN 200 uM): 84.4 nM | apparent KD of MS2 coat protein [2]: 48 nM | apparent KD of MS2 coat protein (input ligand: none): 80.3 nM

UAUUUAGCAAGCAGAUCCCACAUGAGGAUCACCCAUGUUCUCUGAAAGUACAGAAUUACUGUACUUGCUCGUCUUAU [Winner reversed engineered 34] (Eterna round: R97, puzzle: Sensor, turn-off variant 1)
apparent KD of MS2 coat protein (input ligand: FMN 200 uM): 210 nM | apparent KD of MS2 coat protein (input ligand: none): 237 nM

GAUGAGAGAGGAUAUACAUGAGGAUCACCCAUGUAAUUUUCGGACAUGGAAGCUGGAUGUAGAAGGCUCGCAUG [Leritete] (puzzle: Exclusion 3)
apparent KD of MS2 coat protein [1]: 19.6 nM

CCCUCACAUGAGGAUCACCCAUGUCAGGAUAUUCGAACGGUGUGUUUUUGGCCAGUUGGAAGAAGGGACAUAAA [Riinesbe] (Eterna round: R96, puzzle: Exclusion 1)
apparent KD of MS2 coat protein (input ligand: FMN 200 uM): 278 nM | apparent KD of MS2 coat protein [2]: 29 nM | apparent KD of MS2 coat protein (input ligand: none): 32.2 nM

AGCGAAUAAGCAGGAUAUGAGAAUAGAUAGAGCUCAGAAGGGCUACAUGAGGAUCACCCAUGUAAAGUCUUGAGGCUGCGUGGU [Prohibition 13 - Jieux - Exclusion NG 1] (Eterna round: R96, puzzle: Exclusion NG 1)
apparent KD of MS2 coat protein (input ligand: FMN 200 uM): 22.5 nM | apparent KD of MS2 coat protein [2]: 14.4 nM | apparent KD of MS2 coat protein (input ligand: none): 18.4 nM

AGACGGUGAGGAUAUAGACGCAAUCACAUGAGGAUCACCCAUGUGACACGUGAUGGCUGGUUAGAAGGCGCGAAUC [Eternabot (L1) Solution 37] (Eterna round: R97, puzzle: Exclusion 5)
apparent KD of MS2 coat protein (input ligand: FMN 200 uM): 17.1 nM | apparent KD of MS2 coat protein (input ligand: none): 17.4 nM

UUCAGACAUGAGGAUCACCCAUGUGAGGAUAUGAUGCGAUCGUCGAAAGACGAUAGCAUCAGAAGGCACAUAUG [Fiskers Ex 1 - 17] (puzzle: Exclusion 1)
apparent KD of MS2 coat protein [1]: 153 nM

GGUACUAACACGAGAGUGUUAGUACUAUAAGCUUGUGUUACAUGAGGAUCACCCAUGUCCUCAUAAGCUCGUCUUGA [Mat - Sensor v3 - Turn-off var 2 - D90] (puzzle: Sensor v3, turn-off variant 2)
apparent KD of MS2 coat protein [3]: 33 nM | apparent KD of MS2 coat protein [1]: 974 nM | apparent KD of MS2 coat protein [4]: 36.2 nM

ACUUAUAGAGGAUAUACAGAAUAUUACAUGAGGAUCACCCAUGUUCUUCAAUGUAUAUAUGUAGAAGGCUAAGGAU [Mat - Exclusion 5 - JL Mod - D6] (Eterna round: R97, puzzle: Exclusion 5)
apparent KD of MS2 coat protein (input ligand: FMN 200 uM): 299 nM | apparent KD of MS2 coat protein (input ligand: none): 89.9 nM

AUCGUGCAGCUUUGCUGUACGAGUACAUGAGGAUCACCCAUGUAGGAUAUGGUACGCAAAGCGUGCUAGAAGGAUAUGAGAUGU [Mat - Exclusion NG 3 - Mod of JL - D98] (Eterna round: R96, puzzle: Exclusion NG 3)
apparent KD of MS2 coat protein (input ligand: FMN 200 uM): 30.4 nM | apparent KD of MS2 coat protein [2]: 25.2 nM | apparent KD of MS2 coat protein (input ligand: none): 31.6 nM

GGUGCUGGCGCGUCGGUGUUGGUGCAAUAAGCUUGUGAAACAUGAGGAUCACCCAUGUCCUCAUAAGCUCGUCUUAU [salish99_TOv2_r2_086] (puzzle: Sensor v3, turn-off variant 2)
apparent KD of MS2 coat protein [3]: 17.7 nM | apparent KD of MS2 coat protein [1]: 529 nM | apparent KD of MS2 coat protein [4]: 15.9 nM

GCUGGGUCAGGAUAUACAGGGUCGAAAGAUCUGUGAUACCUACAUGAGGAUCACCCAUGUAGAAGGGACUGGGC [ChP 11-04-2015 #10] (puzzle: Exclusion 2)
apparent KD of MS2 coat protein [1]: 14.2 nM

GCGAAAACAAACAGGUGAAACAUGAGGAUCACCCAUGUCCUCAUUUGCUCGUCUUAUAAGCUAUGCGAAAGCAUAGC [Mat - Sensor v3 - turn-off var 1 - Eli Mod - D55] (puzzle: Sensor v3, turn-off variant 1)
apparent KD of MS2 coat protein [3]: 283 nM | apparent KD of MS2 coat protein [1]: 200 nM | apparent KD of MS2 coat protein [4]: 348 nM

UGAUCUAGCGGAGGAUAUACAUGAGGAUCACCCAUGUAGGAUCCAUGACCGUAGUCGUGGAUCGUGUAGAAGGCCGCUAGAUCU [JL ENG2 3.70] (Eterna round: R96, puzzle: Exclusion NG 2)
apparent KD of MS2 coat protein (input ligand: FMN 200 uM): 13 nM | apparent KD of MS2 coat protein [2]: 8.14 nM | apparent KD of MS2 coat protein (input ligand: none): 13.1 nM

UAGUACAUCUAUGGGAGUAACAUGAGGAUCACCCAUGUAUGUCUUGUUUUUUGUUCGUCAUAGGCCUUUUGAUUGGC [JR_SV3TOV1_Sub028] (puzzle: Sensor v3, turn-off variant 1)
apparent KD of MS2 coat protein [3]: 107 nM | apparent KD of MS2 coat protein [1]: 228 nM | apparent KD of MS2 coat protein [4]: 113 nM

UCCUUACAUGAGGAUCACCCAUGUCAGGAUAUCUCCACACUGCGCUUGCGCAGUGUAUAGAGAAGGGACGGGCU [JL ViennaUCT Aner mod 7] (puzzle: Exclusion 1)
apparent KD of MS2 coat protein [1]: 28.5 nM

UGAAUACGUGUUAGGAUAUGGUUUGGUAUUUCGGGCUAGAAGGGACAUGAGGAUCACCCAUGUAAUUGAUAGGU [-16.2, -13.6 kcal, 27% A] (Eterna round: R97, puzzle: Brourd's mod of Exclusion 4)
apparent KD of MS2 coat protein (input ligand: FMN 200 uM): 52.4 nM | apparent KD of MS2 coat protein (input ligand: none): 38.5 nM

UCCGCGCGCUUGCGCGCGGACAUGAGGAUCACCCAUGUCGGGCUUUUUGCUCGUUUUGUUGCGCGCGUUCGCGCGCG [Revision to Olbi_3 by Sunset] (Eterna round: R97, puzzle: Sensor, turn-off variant 1)
apparent KD of MS2 coat protein (input ligand: FMN 200 uM): 89.1 nM | apparent KD of MS2 coat protein (input ligand: none): 101 nM

ACAUGAGGAUCACCCAUGUAAGGUUGGUUUUCUCCGGCUGUUGAGGAUAUAGUCCGGUAUCCGCGCUAGAAGGUGAGGGUUGGC [Aenatbe mod 10] (Eterna round: R96, puzzle: Exclusion NG 3)
apparent KD of MS2 coat protein (input ligand: FMN 200 uM): 73 nM | apparent KD of MS2 coat protein [2]: 71.2 nM | apparent KD of MS2 coat protein (input ligand: none): 77.2 nM

UAUUAGCAAGCGAGAUCCCACAUGAGGAUCACCCAUGUAACAUCCAGAAUUACUGGGUGCAAAGCUCGUCUUAUAUA [Winner reversed engineered 3] (Eterna round: R97, puzzle: Sensor, turn-off variant 1)
apparent KD of MS2 coat protein (input ligand: FMN 200 uM): 434 nM | apparent KD of MS2 coat protein (input ligand: none): 496 nM

GGAAAGGUAGGAUAUACGAAGAAAAAGGGUAGAAGAAGAACACAUGAGGAUCACCCAUGUAGAAGGACCAAAGC [Mat - Exclusion 2 - Mod of my Tesla design - D15] (puzzle: Exclusion 2)
apparent KD of MS2 coat protein [3]: 56.5 nM | apparent KD of MS2 coat protein [1]: 20.9 nM | apparent KD of MS2 coat protein [4]: 23.9 nM

UGUCAGAUGGUAGGAUAUCCAUAUCGAGUGACCCUUUCAUAACAUGAGGAUCACCCAUGUCGGUGGGAGAAGGGCCGUACGGUG [salish99_ExNG02_R04_024] (Eterna round: R96, puzzle: Exclusion NG 2)
apparent KD of MS2 coat protein (input ligand: FMN 200 uM): 27.1 nM | apparent KD of MS2 coat protein [2]: 29.6 nM | apparent KD of MS2 coat protein (input ligand: none): 36.2 nM

GCGCCAUCGUGAGAUGGCGUAUAUACAUGAGGAUCACCCAUGUAGGAUAUCGAUUGCUUUGCAGUCGAGAAGGGCGUGAUAAUU [JL ENG3 3.69] (Eterna round: R96, puzzle: Exclusion NG 3)
apparent KD of MS2 coat protein (input ligand: FMN 200 uM): 109 nM | apparent KD of MS2 coat protein [2]: 60.5 nM | apparent KD of MS2 coat protein (input ligand: none): 82 nM

UUUAAUUUUUUUUUUUUACAAGCUUUUUGCUCGUCUUAUACAUGAGGAUCACCCAUGUGAGUGGAGGGUAAAUUAUC [JMF 88] (puzzle: Sensor v3, turn-off variant 2)
apparent KD of MS2 coat protein [3]: 17.8 nM | apparent KD of MS2 coat protein [1]: 45.8 nM | apparent KD of MS2 coat protein [4]: 16.3 nM

GCACGAAGUGUAGGAUAUCUGUGCGAUUAGCUCAGAGAAGGACACAUGAGGAUCACCCAUGUGUUCCGCGGAAGCAAAACGUGC [Eli exng1 - 056] (Eterna round: R96, puzzle: Exclusion NG 1)
apparent KD of MS2 coat protein (input ligand: FMN 200 uM): 11.2 nM | apparent KD of MS2 coat protein [2]: 9.08 nM | apparent KD of MS2 coat protein (input ligand: none): 11.4 nM

GAAUAGAGAGGAUAUGCAAUGAAGGUAGUACGAUAUAUCUGACAUGAGGAUCACCCAUGUAGAAGGCUCAGAUC [EX2 #8] (Eterna round: R97, puzzle: Exclusion 2)
apparent KD of MS2 coat protein (input ligand: FMN 200 uM): 29.2 nM | apparent KD of MS2 coat protein (input ligand: none): 29.3 nM

AACAUUCCAGAAAGGAAUGACAUGAGGAUCACCCAUGUAGGGAUCUAUGCUAAGUUGCUCGUCGCCGCUCCACAAAG [Eternabot (Original) Solution 5] (Eterna round: R97, puzzle: Sensor, turn-off variant 1)
apparent KD of MS2 coat protein (input ligand: FMN 200 uM): 431 nM | apparent KD of MS2 coat protein (input ligand: none): 362 nM

GAGAAUUUAUAGGAUAUCGUAUGCAUAAUUUAACGAGAAGGAUGAACAUGAGGAUCACCCAUGUGGUAUCAUGG [salish99_ex6_r3_001] (puzzle: Exclusion 6)
apparent KD of MS2 coat protein [3]: 88.9 nM | apparent KD of MS2 coat protein [1]: 192 nM | apparent KD of MS2 coat protein [4]: 122 nM

UGAGUGCUGCGAGGAUAUACAUGAGGAUCACCCAUGUAAUCGUGUGAGGCAAAGCCUCACACGAAGUAGAAGGCGCAGUACUCU [Mat - Exclusion NG 2 - Mod of JL - D17] (Eterna round: R96, puzzle: Exclusion NG 2)
apparent KD of MS2 coat protein (input ligand: FMN 200 uM): 16 nM | apparent KD of MS2 coat protein [2]: 11.4 nM | apparent KD of MS2 coat protein (input ligand: none): 18.5 nM
